Experimental findings from patent US20190300590A1 (PROTAGONIST THERAPEUTICS, published 2019) are described below.

In assay [1] the target is T1, IL-23R on human cells (IL-23R-expressing DB cells; human NK cells) (human, UniProt Q5VWK5 24-629).
T1 sequence (looked up): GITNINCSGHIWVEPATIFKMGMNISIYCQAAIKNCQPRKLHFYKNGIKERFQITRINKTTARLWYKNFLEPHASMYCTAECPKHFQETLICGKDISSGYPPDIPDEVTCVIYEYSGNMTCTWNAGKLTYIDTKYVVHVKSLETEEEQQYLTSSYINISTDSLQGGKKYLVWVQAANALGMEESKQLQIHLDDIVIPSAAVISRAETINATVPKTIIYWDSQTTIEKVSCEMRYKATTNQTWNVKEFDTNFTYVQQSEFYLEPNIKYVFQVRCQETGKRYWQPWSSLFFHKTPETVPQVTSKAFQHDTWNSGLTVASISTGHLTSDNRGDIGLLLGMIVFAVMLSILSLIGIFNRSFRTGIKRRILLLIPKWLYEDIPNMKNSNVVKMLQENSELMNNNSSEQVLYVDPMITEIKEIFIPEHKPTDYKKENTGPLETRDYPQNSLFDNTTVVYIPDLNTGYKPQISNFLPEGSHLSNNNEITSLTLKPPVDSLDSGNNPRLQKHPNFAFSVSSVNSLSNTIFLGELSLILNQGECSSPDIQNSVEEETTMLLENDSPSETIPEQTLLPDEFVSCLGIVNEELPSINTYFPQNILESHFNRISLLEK
Description: cell-based or functional assay.

The target of assay [2] is Rat IL-23R_huFC (rat). The assay can be described thus: rat ELISA vs IL-23. A general note: In an ELISA, binding on a coated surface is turned into a signal by an enzyme label.
Assay [3] concerns the target T2, Rat IL-23R_huFC (rat, UniProt F1LX96 39-369).
T2 sequence: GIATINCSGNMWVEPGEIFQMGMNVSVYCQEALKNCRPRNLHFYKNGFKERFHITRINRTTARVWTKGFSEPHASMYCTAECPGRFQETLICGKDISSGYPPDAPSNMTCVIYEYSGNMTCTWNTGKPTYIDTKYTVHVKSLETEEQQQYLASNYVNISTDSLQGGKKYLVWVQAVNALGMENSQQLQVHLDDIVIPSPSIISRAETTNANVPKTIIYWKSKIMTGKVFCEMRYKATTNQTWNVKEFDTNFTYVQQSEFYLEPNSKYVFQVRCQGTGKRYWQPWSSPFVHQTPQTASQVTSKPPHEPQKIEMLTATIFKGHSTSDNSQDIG
The assay can be described thus: rat IL-23R competitive binding ELISA.

Assay [4] deals with T3, IL23R_huFC (human, UniProt Q5VWK5 24-353).
T3 sequence (looked up): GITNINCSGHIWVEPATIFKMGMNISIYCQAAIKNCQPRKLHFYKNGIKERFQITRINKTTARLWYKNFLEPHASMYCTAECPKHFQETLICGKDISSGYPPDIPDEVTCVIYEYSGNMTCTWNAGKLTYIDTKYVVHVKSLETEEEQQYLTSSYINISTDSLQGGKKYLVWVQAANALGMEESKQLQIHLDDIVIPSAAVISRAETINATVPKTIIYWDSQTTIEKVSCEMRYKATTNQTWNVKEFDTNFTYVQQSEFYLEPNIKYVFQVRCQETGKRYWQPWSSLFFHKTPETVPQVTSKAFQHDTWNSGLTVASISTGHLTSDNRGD
Description: human ELISA vs IL-23.

Assay [5] concerns the target Rat IL-23R_huFC (rat). The assay can be described thus: rat ELISA vs IL-23. The source holds these as a separate data set.
The target in assay [6] is T4, IL23R_huFC (human, UniProt Q5VWK5 24-353).
T4 sequence (looked up): T3 sequence (looked up)
The assay can be described thus: IL23-IL23R competitive ELISA, IC50 grade.

For assay [7], the target named is IL-12Rb1_huFC/IL-23R_huFC (human, UniProt P42701 24-540; Q5VWK5 24-353). The assay can be described thus: SPR, mixed IL-12Rb1_huFC/IL-23R_huFC surface, IL-23 as analyte.
In assay [8] the target is recombinant human IL-12Rβ1_huFC (RnD) (human, UniProt P42701 24-540). The assay can be described thus: SPR, IL-12Rb1_huFC captured on anti-human IgG, IL-23 as analyte. On the technique in general: In SPR one partner is held on a chip, and binding of the other changes the refractive index at the surface.
Assay [9] addresses T3, IL23R_huFC. The assay can be described thus: human ELISA vs IL-23. The source holds these as a separate data set.
The target of assay [10] is T1, IL-23R on human cells …. The assay can be described thus: cell-based or functional assay. This is another data set of the same source.
For assay [11], the target named is Rat IL-23R_huFC (rat). Description: rat ELISA vs IL-23. This is another data set of the same source.

Read-outs that look alike come from different tables or passages of the source. Bridges are numbered along the chain shown (N, C = ends). Where no end group is shown, it is not given here. [ ]: non-standard residue; d: D form. AllylGly = C=CC[C@H](N)C(=O)O; DIG = diglycolic acid linker; Pen = CC(C)(S)[C@H](N)C(=O)O; AEA = NCCOCC(=O)O Where only a bound is given, the exact number is not on record here.

For XNTWQXFXXKNN (as bracketed in name; Pen-Pen disulfide) [Ac-[Pen]-NTWQ[Pen]-[Phe(CONH2)]-[2-Nal]-[Aib]-[Lys(Ac)]-NN-NH2], the “NK cell assay IC50 (IFNγ)” value in assay [1] was < 10 nM.

What is called IC50 is the concentration needed to halve the response being measured. A lower IC50 goes with higher potency. The molecule Ac-[Pen]RTWQCYWRKFG[AEA][dK]-NH2 (disulfide 1-6 (inferred)) [Ac-[Pen]-RTWQCYWRKFG-[AEA]-[(D)-Lys]-NH2] yielded an IC50 with Rat IL-23R_huFC [2] of 100 to 1000 nM.

B1: [Ac-[Pen]-QTWQ-[Pen]-[Phe(4-CONH2)]-[2-Nal]-[α-MeLys]-[Lys(Ac)]-NN-NH2]2DIG (peptide)
peptide: XQTWQXFXKKNN
modifications: Ac; Pen-Pen disulfide; Phe(4-CONH2); 2-Nal; α-MeLys; Lys(Ac); NH2; DIG linker joins the two subunits
The molecule B1 returned an IC50 with Rat IL-23R_huFC [3] of 10 to 25 nM.

B2: [Ac-[Pen]-QTWQ-[Pen]-[Phe(4-OMe)]-[2-Nal]-[α-MeLys]-[Lys(Ac)]-NN-NH2]2DIG (peptide)
peptide: XQTWQXFXKKNN
modifications: Ac; Pen-Pen disulfide; Phe(4-OMe); 2-Nal; α-MeLys; Lys(Ac); NH2; DIG linker joins the two subunits
As for B2, the concentration for half-maximal inhibition (IC50) in the assay with Rat IL-23R_huFC [3] lay in the range of 10 to 25 nM.

B3: [Ac-[Pen]-QTWQ[Pen]-[Phe[4-(2-acetylaminoethoxy)]-[2-Nal]-[α-MeVal]-KNN-NH2]2DIG (peptide)
peptide: XQTWQXFXVKNN
modifications: not fully specified; Ac; Pen-Pen disulfide; Phe[4-(2-acetylaminoethoxy)]; 2-Nal; α-MeVal; NH2; DIG linker joins the two subunits
In the case of B3, the IC50 with Rat IL-23R_huFC [3] lay in the range of 10 to 25 nM.

B4: [Ac-[Pen]-QTWQ[Pen]-[Phe[4-(2-acetylaminoethoxy)]-[2-Nal]-K-[Lys(Ac)]-NN-NH2]2DIG (peptide)
peptide: XQTWQXFXKKNN
modifications: Ac; Pen-Pen disulfide; Phe[4-(2-acetylaminoethoxy)]; 2-Nal; Lys(Ac); NH2; DIG linker joins the two subunits
As to B4, in the assay with Rat IL-23R_huFC [3], the 50% inhibitory concentration (IC50) was 25 to 100 nM.

With [AllylGly]ADWV[AllylGly]YWHTFG (staple 1-6 (inferred)) [SEQ ID NO. 1000 peptide (drawing CHEM-US-00114)], in the assay with IL23R_huFC [4], the IC50 was ~20 µM.

Molecule XADWVCYWHTFGXK (as bracketed in name; cyclized via Cys and Pen) [Ac-[(D)Pen]-ADWVCYWHTFG-[AEA]-[(D)-Lys]-NH2] displayed an IC50 in the assay with Rat IL-23R_huFC [5] of 1 to 10 µM.

On to Ac-CADWVCYWHTK(DIG)G-OH (cysteine pairing not given here; also: dimer through DIG on Lys) [(Ac-CADWVCYWHTKG-OH)2DIG], for which, in the assay with IL23R_huFC [6], the IC50 lay within 1 to 10 µM.

On to H-FPTWEWYWCNRD-NH2 (also: oxidized dimer via intermolecular Cys9-Cys9 disulfide) [(Hy-FPTWEWYWCNRD-NH2)2, oxidized dimer through the cysteine], for which the IC50 with IL23R_huFC [6] was 1 to 10 µM.

B5: Recombinant human IL-23 (Humanzyme) (ligand)
chain 1: RAVPGGSSPAWTQCQQLSQKLCTLAWSAHPLVGHMDLREEGDEETTNDVPHIQCGDGCDPQGLRDNSQFCLQRIHQGLIFYEKLLGSDIFTGEPSLLPDSPVGQLHASLLGLSQLLQPEGHHWETQQIPSLSPSQPWQRLLLRFKILRSLQAFVAVAARVFAHGAATLSP
chain 2: IWELKKDVYVVELDWYPDAPGEMVVLTCDTPEEDGITWTLDQSSEVLGSGKTLTIQVKEFGDAGQYTCHKGGEVLSHSLLLLHKKEDGIWSTDILKDQKEPKNKTFLRCEAKNYSGRFTCWWLTTISTDLTFSVKSSRGSSDPQGVTCGAATLSAERVRGDNKEYEYSVECQEDSACPAAEESLPIEVMVDAVHKLKYENYTSSFFIRDIIKPDPPKNLQLKPLKNSRQVEVSWEYPDTWSTPHSYFSLTFCVQVQGKSKREKKDRVFTDKTSATVICRKNASISVRAQDRYYSSSWSEWASVPCS
For orientation: Kd means the concentration at which binding is half-saturated. A word on the koff: it is the rate constant with which the complex falls apart. A word on the kon: it is the second-order rate constant of association. Regarding B5, in [7], the affinity, expressed as Kd, was 0.18 nM; the off-rate (koff) came to 0.000115 s⁻¹; the on-rate constant (kon) amounted to 631000 M⁻¹ s⁻¹. In addition, in [8], the equilibrium dissociation constant (Kd) is 0.87 nM, the off-rate (koff) amounted to 0.000438 s⁻¹ and the kon is 501000 M⁻¹ s⁻¹.

B6: [Ac-[(D)Lys]-Cyclo-[[Abu]-QTWQC]-[Phe(4-OMe)]-[2-Nal]-[α-MeLys]-ENG-NH2]2 PEG25 (peptide)
peptide: KXQTWQCFXKENG
modifications: not fully specified; as bracketed in name; thioether cyclo; PEG25 linker through α-MeLys
Take B6: the IC50 with IL23R_huFC [9] is < 10 nM; in the assay with Rat IL-23R_huFC [11], 10 to 25 nM. Also, the “pStat3 HTRF IC50” value in assay [10] was < 10 nM.
